Laboratory results reported in patent US9993536B2, “Peptides and combination of peptides and scaffolds for use in immunotherapy against renal cell carcinoma (RCC) and other cancers” (immatics biotechnologies GmbH, priority 2015, dated 2018).

Test system: CD8+ T cells
Test: In vitro T-cell priming assay with aAPCs loaded with peptide/MHC complexes and anti-CD28 (immunogenicity, multimer staining)
Assay type: cell-based, human
Details: healthy HLA-A*02+ donors; share of positive donors
Description: In order to obtain information regarding the immunogenicity of the TUMAPs of the present invention, the inventors performed investigations using an in vitro T-cell priming assay based on repeated stimulations of CD8+ T cells with artificial antigen presenting cells (aAPCs) loaded with peptide/MHC complexes and anti-CD28 antibody.
In order to perform in vitro stimulations by artificial antigen presenting cells loaded with peptide-MHC complex (pMHC) and anti-CD28 antibody, the inventors first isolated CD8+ T cells from fresh HLA-A*02 leukapheresis products via positive selection using CD8 microbeads (Miltenyi Biotec, Bergisch-Gladbach, Germany) of healthy donors obtained from the University clinics Mannheim, Germany, after informed consent.
PBMCs and isolated CD8+ lymphocytes were incubated in T-cell medium (TCM) until use consisting of RPMI-Glutamax (Invitrogen, Karlsruhe, Germany) supplemented with 10% heat inactivated human AB serum (PAN-Biotech, Aidenbach, Germany), 100 U/ml Penicillin/100 μg/ml Streptomycin (Cambrex, Cologne, Germany), 1 mM sodium pyruvate (CC Pro, Oberdorla, Germany), 20 μg/ml Gentamycin (Cambrex). 2.5 ng/ml IL-7 (PromoCell, Heidelberg, Germany) and 10 U/ml IL-2 (Novartis Pharma, Nürnberg, Germany) were also added to the TCM at this step.
Generation of pMHC/anti-CD28 coated beads, T-cell stimulations and readout was performed in a highly defined in vitro system using four different pMHC molecules per stimulation condition and 8 different pMHC molecules per readout condition.
The purified co-stimulatory mouse IgG2a anti human CD28 Ab 9.3 (Jung et al., 1987) was chemically biotinylated using Sulfo-N-hydroxysuccinimidobiotin as recommended by the manufacturer (Perbio, Bonn, Germany). Beads used were 5.6 μm diameter streptavidin coated polystyrene particles (Bangs Laboratories, Illinois, USA).
pMHC used for positive and negative control stimulations were A*0201/MLA-001 (peptide […] (SEQ ID NO. 152) from modified Melan-A/MART-1) and A*0201/DDX5-001 ([…] from DDX5 (SEQ ID NO. 153)), respectively.
800.000 beads/200 μl were coated in 96-well plates in the presence of 4×12.5 ng different biotin-pMHC, washed and 600 ng biotin anti-CD28 were added subsequently in a volume of 200 μl. Stimulations were initiated in 96-well plates by co-incubating […] CD8+ T cells with 2×10^5 washed coated beads in 200 μl TCM supplemented with 5 ng/ml IL-12 (PromoCell) for 3 days at 37° C. Half of the medium was then exchanged by fresh TCM supplemented with 80 U/ml IL-2 and incubating was continued for 4 days at 37° C. This stimulation cycle was performed for a total of three times. For the pMHC multimer readout using 8 different pMHC molecules per condition, a two-dimensional combinatorial coding approach was used as previously described (Andersen et al., 2012) with minor modifications encompassing coupling to 5 different fluorochromes. Finally, multimeric analyses were performed by staining the cells with Live/dead near IR dye (Invitrogen, Karlsruhe, Germany), CD8-FITC antibody clone SK1 (BD, Heidelberg, Germany) and fluorescent pMHC multimers. For analysis, a BD LSRII SORP cytometer equipped with appropriate lasers and filters was used. Peptide specific cells were calculated as percentage of total CD8+ cells. Evaluation of multimeric analysis was done using the FlowJo software (Tree Star, Oregon, USA). In vitro priming of specific multimer+ CD8+ lymphocytes was detected by comparing to negative control stimulations.

Row | Substance | in vitro immunogenicity: donors
1 | 123 (YVDPVITSI; listed as Homo sapiens) [compound 123] | ++++ (>=70% = ++++)
2 | 127 (VLAPLFVYL; listed as Homo sapiens) [compound 127] | ++++ (>=70% = ++++)
3 | 143 (ALFVRLLALA; listed as Homo sapiens) [compound 143] | +++ (50%-69% = +++)

Same assay, conditions: healthy HLA-A*02+ donors; share of positive wells

Row | Substance | in vitro immunogenicity: wells
4 | 123 (YVDPVITSI; listed as Homo sapiens) [compound 123] | + (<20% = +)
5 | 127 (VLAPLFVYL; listed as Homo sapiens) [compound 127] | ++ (20%-49% = ++)
6 | 143 (ALFVRLLALA; listed as Homo sapiens) [compound 143] | + (<20% = +)

Same assay, conditions: in vitro immunogenicity, HLA class I peptides; percentage of positive wells

Row | Substance | Wells positive [%]
7 | 1 (ALIVSLPYL; listed as Homo sapiens) [compound 1] | + (<20% = +)

Target: HLA-A*02:01 (Homo sapiens, UniProt P04439, D140Y/D185E/D98H/E176V/E277Q/G131W/G231S/I119V/I121R/I166T/I218V/L300P/L318F/N151K/N90K/P208A/P217A/Q86G/Q94H/R138H/R169H/T345S)
Test: MHC binding assay (UV-ligand exchange, beta2m ELISA)
Details: peptide exchange yield, HLA-A*02:01, UV-ligand exchange
Description: Candidate peptides for T cell based therapies according to the present invention were further tested for their MHC binding capacity (affinity). The individual peptide-MHC complexes were produced by UV-ligand exchange, where a UV-sensitive peptide is cleaved upon UV-irradiation, and exchanged with the peptide of interest as analyzed. Only peptide candidates that can effectively bind and stabilize the peptide-receptive MHC molecules prevent dissociation of the MHC complexes. To determine the yield of the exchange reaction, an ELISA was performed based on the detection of the light chain (β2m) of stabilized MHC complexes. The assay was performed as generally described in Rodenko et al. (Rodenko et al., 2006).
96 well MAXISorp plates (NUNC) were coated over night with 2 ug/ml streptavidin in PBS at room temperature, washed 4× and blocked for 1 h at 37° C. in 2% BSA containing blocking buffer. Refolded HLA-A*02:01/MLA-001 monomers served as standards, covering the range of 15-500 ng/ml. Peptide-MHC monomers of the UV-exchange reaction were diluted 100 fold in blocking buffer. Samples were incubated for 1 h at 37° C., washed four times, incubated with 2 ug/ml HRP conjugated anti-β2m for 1 h at 37° C., washed again and detected with TMB solution that is stopped with […]. Absorption was measured at 450 nm. Candidate peptides that show a high exchange yield (preferably higher than 50%, most preferred higher than 75%) are generally preferred for a generation and production of antibodies or fragments thereof, and/or T cell receptors or fragments thereof, as they show sufficient avidity to the MHC molecules and prevent dissociation of the MHC complexes.

Row | Peptide exchange (MHC class I binding score) | Substance
8 | +++ (≥50 = +++) | 1 (ALIVSLPYL; listed as Homo sapiens) [compound 1]
9 | ++ (≥20% = ++) | 69 (ILADLLPSL; listed as Homo sapiens) [compound 69]
10 | ++ (≥20% = ++) | 70 (SLTALRLLL; listed as Homo sapiens) [compound 70]
11 | ++ (≥20% = ++) | 72 (YSLEKVFGI; listed as Homo sapiens) [compound 72]
12 | +++ (≥50 = +++) | 74 (GLFHKQVTV; listed as Homo sapiens) [compound 74]
13 | +++ (≥50 = +++) | 75 (FLIKSINLV; listed as Homo sapiens) [compound 75]
14 | ++ (≥20% = ++) | 76 (VLADDHLIEV; listed as Homo sapiens) [compound 76]
15 | ++ (≥20% = ++) | 77 (SLIKHKIML; listed as Homo sapiens) [compound 77]
16 | +++ (≥50 = +++) | 79 (ALADIVWRA; listed as Homo sapiens) [compound 79]
17 | ++ (≥20% = ++) | 81 (SLLPALPKL; listed as Homo sapiens) [compound 81]
18 | +++ (≥50 = +++) | 82 (SLLQATDFMSL; listed as Homo sapiens) [compound 82]
19 | +++ (≥50 = +++) | 85 (FVMSEIRTV; listed as Homo sapiens) [compound 85]
20 | ++ (≥20% = ++) | 89 (SLLLAVTEV; listed as Homo sapiens) [compound 89]
21 | ++ (≥20% = ++) | 90 (FTLEKNFVI; listed as Homo sapiens) [compound 90]
22 | ++ (≥20% = ++) | 91 (MLLSSLVSL; listed as Homo sapiens) [compound 91]
23 | +++ (≥50 = +++) | 92 (FLFRDILEL; listed as Homo sapiens) [compound 92]
24 | ++++ (≥75% = ++++) | 93 (GVMAGDIYSV; listed as Homo sapiens) [compound 93]
25 | ++ (≥20% = ++) | 94 (ILHHKVYDL; listed as Homo sapiens) [compound 94]
26 | ++ (≥20% = ++) | 97 (TLISELVQA; listed as Homo sapiens) [compound 97]
27 | ++ (≥20% = ++) | 99 (GLAPHLEQI; listed as Homo sapiens) [compound 99]
28 | +++ (≥50 = +++) | 102 (LLFDVHTTL; listed as Homo sapiens) [compound 102]
29 | ++ (≥20% = ++) | 103 (KLQDGLLHI; listed as Homo sapiens) [compound 103]
30 | +++ (≥50 = +++) | 107 (VLMDLKALLL; listed as Homo sapiens) [compound 107]
31 | ++++ (≥75% = ++++) | 109 (YLWSRVEKL; listed as Homo sapiens) [compound 109]
32 | ++ (≥20% = ++) | 110 (LLDLHSYLL; listed as Homo sapiens) [compound 110]
33 | ++ (≥20% = ++) | 111 (TLLETEMLL; listed as Homo sapiens) [compound 111]
34 | +++ (≥50 = +++) | 113 (SLFDWNVKL; listed as Homo sapiens) [compound 113]

Second part, the substance before the results:

Row | Substance | Peptide exchange (MHC class I binding score)
35 | 71 (ALDGHLYAV; listed as Homo sapiens) [compound 71] | +++ (≥50 = +++)
36 | 73 (GLDGIPFTV; listed as Homo sapiens) [compound 73] | +++ (≥50 = +++)
37 | 78 (ALLDTVVQA; listed as Homo sapiens) [compound 78] | ++ (≥20% = ++)
38 | 80 (KLASMLETL; listed as Homo sapiens) [compound 80] | +++ (≥50 = +++)
39 | 83 (IQWSIVPEV; listed as Homo sapiens) [compound 83] | +++ (≥50 = +++)
40 | 84 (YLMDEGAHL; listed as Homo sapiens) [compound 84] | ++ (≥20% = ++)
41 | 86 (GLLQGKLALL; listed as Homo sapiens) [compound 86] | ++ (≥20% = ++)
42 | 88 (TLAELHISL; listed as Homo sapiens) [compound 88] | ++ (≥20% = ++)
43 | 96 (TLAETLVNL; listed as Homo sapiens) [compound 96] | +++ (≥50 = +++)
44 | 100 (KLNVAPLAV; listed as Homo sapiens) [compound 100] | ++ (≥20% = ++)
45 | 101 (HIYDKAFITV; listed as Homo sapiens) [compound 101] | ++ (≥20% = ++)
46 | 104 (ALFEGVVRQI; listed as Homo sapiens) [compound 104] | +++ (≥50 = +++)
47 | 105 (ALADLDELLIRA; listed as Homo sapiens) [compound 105] | +++ (≥50 = +++)
48 | 106 (VLMDLKALL; listed as Homo sapiens) [compound 106] | +++ (≥50 = +++)
49 | 108 (VLISVLQAI; listed as Homo sapiens) [compound 108] | ++ (≥20% = ++)
50 | 112 (LLFDHLEPIEL; listed as Homo sapiens) [compound 112] | +++ (≥50 = +++)
51 | 114 (ALAVNISAA; listed as Homo sapiens) [compound 114] | +++ (≥50 = +++)
